Measurements as given in patent US7981423B2, “Rage fusion proteins” (Transtech Pharma, Inc., priority 2004, dated 2011).

Experiments:
amyloid-beta (Abeta) = molecular target: T1, amyloid-beta (Abeta) (Homo sapiens, UniProt P05067); experiment: In vitro ligand binding ELISA, immobilized amyloid-beta; details: various dilutions of fusion protein; FIG. 7
T1 construct: Amyloid Beta (1-40) from Biosource; purchased Biosource
Method: (§1) For example, the RAGE fusion protein may be used in a binding assay to identify potential RAGE ligands. In one example embodiment of such a binding assay, a known RAGE ligand may coated onto a solid substrate (e.g., Maxisorb plates) at a concentration of about 5 micrograms per well, where each well contains a total volume of about 100 microliters (μL). The plates may be incubated at 4° C. overnight to allow the ligand to absorb. Alternatively, shorter incubation periods at higher temperature (e.g., room temperature) may be used. […] The fusion protein bound to the immobilized ligand may be detected in a variety of ways. […] The bound complex may be detected by adding the alkaline phosphatase substrate, para-nitrophenylphosphate (PNPP), and measuring conversion of PNPP to para-nitrophenol (PNP) as an increase in absorbance at 405 nm. […] Binding was detected by the addition of an immunodetection complex containing a monoclonal mouse anti-human IgG1 diluted 1:11,000 to a final assay concentration (FAC) of 21 ng/100 μL, a biotinylated goat anti-mouse IgG diluted 1:500, to a FAC of […], and an avidin-linked alkaline phosphatase. […] Binding of the complex to the immobilized fusion protein was quantified by measuring conversion of PNPP to para-nitrophenol (PNP) which was-measured spectrophotornetrically at 405 nm. […]

amphoterin (Ampho) = molecular target: T2, amphoterin (Ampho) (Homo sapiens, UniProt P09429); experiment: In vitro ligand binding ELISA, immobilized amphoterin; details: various dilutions of fusion protein; FIG. 7
T2 sequence (P09429 1-215): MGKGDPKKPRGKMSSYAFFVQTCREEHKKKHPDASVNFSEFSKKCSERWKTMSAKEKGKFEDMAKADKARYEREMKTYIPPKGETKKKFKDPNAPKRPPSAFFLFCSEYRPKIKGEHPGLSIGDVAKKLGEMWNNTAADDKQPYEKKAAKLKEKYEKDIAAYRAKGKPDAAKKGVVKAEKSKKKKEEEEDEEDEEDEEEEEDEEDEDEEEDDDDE
Method: as §1

Fc receptor = Fc receptor activation, TNF-α secretion from THP-1 cells; format: cell-based; details: FIG. 12
Description: Fc stimulation results in TNF-α secretion.

Zucker diabetic rats = experiment: Diabetic rat model of restenosis (balloon injury of left common carotid artery); format: in vivo
Method: In these experiments, balloon injury of left common carotid artery was performed in Zucker diabetic and nondiabetic rats using standard procedure. […] A maintenance dose was delivered every other day until day 7 after injury (i.e., at day 1, 3, 5 and 7 after injury). The maintenance dose was high=1 mg/animal for one group, or low=0.3 mg/animal for the second group. To measure vascular smooth muscle cell (VSMC) proliferation, animals were sacrificed at 4 days and 21 days after injury.
For the measurement of cell proliferation, 4 day animals received intraperitoneal injection of bromodeoxyuridine (BrDdU) 50 mg/kg at 18, 12, and 2 hours before euthanasia. After sacrifice, the entire left and right carotid arteries were harvested. Specimens were stored in Histochoice for at least 24 hours before embedding. Assessment of VSMC proliferation was performed using mouse anti-BrdU monoclonal antibody. A fluorescence labeled goat anti-mouse secondary antibody was applied. The number of BrdU-positive nuclei per section were counted by two observers blinded to the treatment regimens.
The remaining rats were sacrificed at 21 days for morphometric analysis. Morphometric analyses were performed by an observer blinded to the study groups, using computerized digital microscopic planimetry software Image-Pro Plus on serial sections, ([…]) carotid arteries stained by Van Gieson staining. All data were expressed as mean±SD. Statistical analysis was performed with use of SPSS software. Continuous variables were compared using unpaired t tests. A values of P≦0.05 was considered to be statistically significant.

[1] = molecular target: immobilized known RAGE ligands (HMG1B, CML, A beta); experiment: Saturation binding of TTP-4000 to immobilized known RAGE ligands; details: fusion protein 0 to 360 nM; Graphpad Prizm; FIG. 15; figures not given
Method: The ligands are immobilized on a microtiter plate and incubated in the presence of increasing concentrations of fusion protein from 0 to 360 nM. The fusion protein-ligand interaction is detected using a polyclonal antibody conjugated with alkaline phosphatase that is specific for the IgG portion of the fusion chimera. […] HMG1B=Ampoterin, CML=Carboxymethyl Lysine, A beta=Amyloid beta 1-40.

[2] = High dose 1.0 mg/animal qod × 4, loading dose 3 mg/animal, IP, 21 days, mean±SD
[3] = Low dose 0.3 mg/animal qod × 4, loading dose 3 mg/animal, IP, 21 days, mean±SD

T1 sequence (P05067 672-711 limits assumed): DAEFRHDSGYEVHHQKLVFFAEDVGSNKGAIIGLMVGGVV

B1: TTP-4000: four domain RAGE fusion protein (SEQ ID NO: 32): human RAGE amino acids 1-251 linked to CH2 and CH3 domains of human IgG (protein)
chain: MAAGTAVGAWALVLSLWGAVVGAQNITARIGEPLVLKCKGAPKKPPQRLEWKLNTGRTEAWKVLSPQGGGPWDSVARVLPNGSLFLPAVGIQDEGIFRCQAMNRNGKETKSNYRVRVYQIPGKPEIVDSASELTAGVPNKVGTCVSEGSYPAGTLSWHLDGKPLVPNEKGVSVKEQTRRHPETGLFTLQSELMVTPARGGDPRPTFSCSFSPGLPRHRALRTAPIQPRVWEPVPLEEVQLVVEPEGGAVAPPSVFLFPPKPKDTLMISRTPEVTCVVVDVSHEDPEVKFNWYVDGVEVHNAKTKPREEQYNSTYRVVSVLTVLHQDWLNGKEYKCKVSNKALPAPIEKTISKAKGQPREPQVYTLPPSRDELTKNQVSLTCLVKGFYPSDIAVEWESNGQPENNYKTTPPVLDSDGSFFLYSKLTVDKSRWQQGNVFSCSVMHEALHNHYTQKSLSLSPGK
B1 was tested, and the “binding to immobilized amyloid-beta (absorbance at 405 nm)” value (amyloid-beta (Abeta)) was “specifically interact”, the “binding to immobilized amphoterin (absorbance at 405 nm)” value (amphoterin (Ampho)) was “specifically interact” and the “stimulation of TNF-α release from cells (in words)” value (Fc receptor; conditions where human IgG stimulation of TNF-α release is detected) was “does not stimulate TNF-α release”. The TNF generated (Fc receptor; well precoated with 10 μg/well heat aggregated protein, THP-1 cells, 24 hours) was “less than 2 ng/well”, the “vascular smooth muscle cell proliferation (BrdU proliferating cells, in words)” value (Zucker diabetic rats; 4 days after injury, dose-responsive, FIG. 13B) was “significantly reduced” and the Luminal area (Zucker diabetic rats; [2]) was 0.16 ± 0.02 mm^2. The Medial area (Zucker diabetic rats; [2]) was 0.11 ± 0.01 mm^2, the I/M ratio (Zucker diabetic rats; [3]) was 1.61 ± 0.26 and the Luminal area (Zucker diabetic rats; [3]) was 0.18 ± 0.04 mm^2. For the same molecule, the Medial area (Zucker diabetic rats; [3]) was 0.11 ± 0.02 mm^2, the “intima/media ratio (in words)” value (Zucker diabetic rats; dose-responsive, FIG. 13A) was “significantly reduced” and the “Relative Kds” value [1] was “match with established literature values”.
